The text below walks through data of patent US20140287419A1, “Compositions Having Dicamba Decarboxylase Activity and Methods of Use” (priority 2013, published 2014).

The nature of the data set: 14C assay with IPTG-induced recombinant E. coli cells (14CO2 capture from [14C]-carboxyl-labeled dicamba). The note with it: for Dicamba Decarboxylase Activity: IPTG-induced recombinant E. coli cells, [14C]-carboxyl-labeled dicamba, 14CO2 capture; for Enzymatic Detection level: dicamba decarboxylation activity of the protein of the given SEQ ID NO.

B1: 64 (protein, listed as Achromobacter piechaudii)
chain: MAIQKIDMHAHFFPPITRQEAAALDPVNAPWLRPDADGATGQIMAGEREFRPVDATLWDPALRIEQMDRHGVDVQILCATPIMFGYTYPARPAADWAARMNDLALEHCAYAPSRLKALAQVPLQDLELACQEASRARAAGHLGVQIGNHVGPRDLDDETLVQFLIHCANNDIPVLVHPWDMMTDGRMKKWMLPWLVSMPAETQLGILSLILSGAFERIPRSLKLCFAHGGGSFAYLLGRVDNAWRHRDIIRQDCPQLPSSYTDRFYTDSAVFDPRSLRLLIDVMGEDRVLLGSDYPYPLGEQEVGRLVAHAELVPEVQQKILFRNTMTFFGLQPGLQPGLQS
Consider B1, for which the “Dicamba Decarboxylase Activity” value was “Low” and the “Enzymatic Detection level” value is recorded as “Low”.

B2: 68 (protein, listed as Hoeflea phototrophica)
chain: MAIIDAHTHTLCPAVNEKVAGTIKPDSVPYQRDMSPESKEQDHTQFPELKIMFNQVERRLADMARMGIDRQVIAPAPGQQHYWAEPKLLAEISALQNDHVAELVARAPDRFAGIGTLPMTDPDAAVAEITRATRELGLRVFQIDSRVMERELSDASLDPIYAALEAAGAGLMIHPLGFSNGERLTPFFMVNSVAQPLEELLAFNHLVFGGVLDRFPKLKVYIAHGGGFAPFYIGRFDHAWKVRPEVNRLTPSAPSTYLRRIYFDTCVYRTDHIETLVRTVGADRVMLGSDYPFDMGDTDPLGLLNACQGLSDDEKATISSKVAIDFFGLET
Consider B2, for which the “Dicamba Decarboxylase Activity” value was “No” and the “Enzymatic Detection level” value is recorded as “No”.

B3: 62 (protein)
chain: MAVGGKNFRDVTDQVWCPKKRIEDMDREGVDIQVLSPIPVTFSYWAKPEEAESMARIQNDFIAETVLAYPDRFVGLGTVPMQDGETAIREMERCITELNLHGIEIGTNVNGKNLDDPSFIEFFRMAEKWQVPIFIHPWETLGRDRMPHHNFMYTVGMPSETALAAATLIWSGIMEKFPRLKVCFAHGGGSFPYILPRLDQGWKVWPHLRLTTHPPSYYAKKFYFDSLNYDPINLKYMIERFGHEKIFMGSDYPFLLREVDPGKVIDETASLSEEQKAAMLGGNAAEFLNIDIKKRGVAYAESTNT
modifications: Bacillus thuringiensis serovar pulsiensis
Take B3: the “Dicamba Decarboxylase Activity” value is “No” and the “Enzymatic Detection level” value is given as “No”.

B4: 61 (protein, listed as Gordonia amarae)
chain: MATGAGSGVPSPADRVIVRSPGVIDVHAHAVLPMSLGCAGAAGPEIGYREDGSPFFRVGEYVLNGVRYEGSAFMDPEVRVAAMDAAGIGLQMISPNPITYFTRLDARSATDYARAHNDAIAEAAGRHPGRLVGAAQLPMQDVPAAIAELERSVRELGLVAAYIDTDIGDRTLDAPELDDFYSAAVELDVPVFIHPSPVGQEGPPDDTRLRRFDLDLLLGFSYDETLAVAALVFGGVLERHPALDVCLSHGGGTLAFVAGRFARAVAKPRAWVPEFLVENGIESYLRRLWLDTHVHSAGSLRLLIDTVGTDRLVFGTNFAGWDADGATEVDALGDLRETTTANAAHLLRLGRA
On to B4, for which the “Dicamba Decarboxylase Activity” value is recorded as “No” and the “Enzymatic Detection level” value is given as “No”.

B5: 4 (protein, listed as Lactobacillus buchneri)
chain: MAKVITLEEHFSSQKLGQKMAEVLPKRPIGNVSPKMQDYMQRSLPPEAELEDVTGSRIQWMDQHQISMQILSYGNQNPQNSDPKFAVELTKLANDELAKAVAKAPDRFRAFASLPVSHPTDAAAELKRGVEELGFKGAMLVRPTSQAHPFFDDPFYLPIFEAAANLNVPVYLHPSFPDSQIIDYYYSNGPWDDKVSGILGTAGYGWHTDVGIQTVRLLLSGVFEKYPNLKLISGHWGEFASFALERMDQVMYPETNLSEPISKIYRDHVYVTPSGILTEPQLKFVKDEVGIEHLLYSIDYPYIKPENSGSFIESSPLTDEEKELFAHGNAEKLLQL
In the case of B5, the “Dicamba Decarboxylase Activity” value was “High” and the “Enzymatic Detection level” value was “High”.
